Results: patent US20260258155A1 (TRIVENI BIO, published 2026)
Positions count from the first letter of the chain named. Values belong to the binder of their own block, whether it stands above or below them.

What was measured:
[1] = biological target: T1, mouse KLK7 (mKLK7) (mouse, UniProt Q91VE3 26-249); assay: cell-based or functional assay
[2] = biological target: human KLK7 (hKLK7), active form (human, UniProt P49862 30-253); assay: cell-based or functional assay
[3] = biological target: T1, mouse KLK7 (mKLK7); assay: Biacore SPR, antibody captured on Protein A chip, single-cycle kinetics, 25 C
Experimental: (§1) All screening assays were performed at 25 C. The running buffer used was 20 mM HEPES, 300 mM NaCl, 0.01% Tween-20, pH 7.5. Antibodies (1 ug/mL) were captured on Fc2-4 of a Series S ProteinA Sensor Chip (Cytiva) flowing at 10 ul/mL for 30 s. Kinetics measurements were made in single-cycle kinetics mode with a series of 4-5 concentrations with top concentration of 25-100 nM and serial dilution 4-fold. Contact time was typically 300 s and dissociation time ranged from 1800-3600 s. Flow rate of 30 ul/mL was typically used. The sensor chip was regenerated with 10 mM glycine, pH 1.5 with a contact time of 30 s flowing at 50 ul/mL.

[4] = biological target: mouse KLK5 (mKLK5) (mouse); assay: cell-based or functional assay
[5] = biological target: human KLK5 (hKLK5), active form (human, UniProt Q9Y337 67-293); assay: cell-based or functional assay
[6] = biological target: T2, mouse KLK5 (mKLK5) (mouse); assay: Biacore SPR, antibody captured on Protein A chip, single-cycle kinetics, 25 C
T2 construct: Enzymatically active in the protease assay
Experimental: as §1

Sequence of human KLK7 (hKLK7), active form (P49862 30-253): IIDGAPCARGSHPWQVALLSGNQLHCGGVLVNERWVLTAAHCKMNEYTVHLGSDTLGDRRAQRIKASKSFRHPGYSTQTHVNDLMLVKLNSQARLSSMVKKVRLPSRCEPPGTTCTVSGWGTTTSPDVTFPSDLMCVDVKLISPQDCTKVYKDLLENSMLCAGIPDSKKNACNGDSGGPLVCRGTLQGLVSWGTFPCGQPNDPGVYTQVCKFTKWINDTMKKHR
T1 sequence (Q91VE3 26-249 limits assumed): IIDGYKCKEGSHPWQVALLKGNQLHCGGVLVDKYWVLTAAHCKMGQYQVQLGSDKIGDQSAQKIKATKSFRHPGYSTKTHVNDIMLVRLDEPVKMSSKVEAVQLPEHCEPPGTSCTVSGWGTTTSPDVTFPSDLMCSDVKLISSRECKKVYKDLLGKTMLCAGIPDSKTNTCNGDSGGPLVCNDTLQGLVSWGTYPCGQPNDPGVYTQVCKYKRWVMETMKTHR

mKLK7 IC50 (protease inhibition) [1]: 1.06 nM
mKLK7 IC90 (protease inhibition) [1]: 5.03 nM
Kd [3]: 0.0302 nM
B2: KLK7-L1-Ab7 (antibody, V domains shown)
VH: QVQLVQSGAEVKKPGASVKVSCKASGYTFTSEGIHWVRQAPGQGLEWMGSISASSGDTNYAQKLQGRVTMTTDTSTSTAYMELRSLRSDDTAVYYCARGAGYGARDWYFDLWGQGTMVTVSS
VL: DIQMTQSPSSLSASVGDRVTITCRASQSISSYLNWYQQKPGKAPKLLIYGASSLQSGVPSRFSGSGSGTDFTLTISSLQPEDFATYYCDQRYSTPPITFGGGTKVEIK

mKLK7 IC50 (protease inhibition) [1]: 1.35 nM
mKLK7 IC90 (protease inhibition) [1]: 7.25 nM
hKLK7 IC50 (protease inhibition) [2]: 1.23 nM
hKLK7 IC90 (protease inhibition) [2]: 4.66 nM
Kd [3]: 0.017 nM
B3: KLK7-L1-Ab5 (antibody, V domains shown)
VH: B2 VH with G99A, D106H
VL: B2 VL with R91W

mKLK7 IC50 (protease inhibition) [1]: 0.5 nM
mKLK7 IC90 (protease inhibition) [1]: 108 nM
Kd [3]: 1.62 nM
B4: KLK7-L1-Ab1 (antibody, V domains shown)
VH: QVQLVQSGAEVKKPGSSVKVSCKASGGTFSNYAISWVRQAPGQGLEWMGWISAYSGDTNYAQKLQGRVTMTTDTSTSTAYMELRSLRSDDTAVYYCARAAGYGARHWYFDLWGQGTMVTVSS
VL: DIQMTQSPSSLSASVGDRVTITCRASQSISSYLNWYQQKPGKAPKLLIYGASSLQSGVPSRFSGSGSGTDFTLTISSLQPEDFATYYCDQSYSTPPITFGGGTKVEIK

mKLK5 IC50 (protease inhibition) [4]: 12.7 nM
mKLK5 IC90 (protease inhibition) [4]: 80.8 nM
Kd [6]: 12 nM
B7: KLK5-L3-Ab6 (antibody, V domains shown)
VH: QVQLVQSGAEVKKPGSSVKVSCKASGGTFSGYVISWVRQAPGQGLEWMGGIFPISGYAVYAQKFQGRVTITADESTSTAYMELSSLRSEDTAVYYCARASASGYYDRSYYYYGMDVWGQGTTVTVSS
VL: DIQMTQSPSSVSASVGDRVTITCRASQGISSWLAWYQQKPGKAPKLLIYAASSLQSGVPSRFSGSGSGTDFTLTISSLQPEDFATYYCQQVSSFPQTFGGGTKVEIK

mKLK5 IC50 (protease inhibition) [4]: 4.1 nM
mKLK5 IC90 (protease inhibition) [4]: 25 nM
Kd [6]: 0.26 nM
B9: KLK5-L1-Ab5 (antibody, V domains shown)
VH: EVQLVESGGGLVQPGGSLRLSCAASGFTFEHYSMNWVRQAPGKGLEWVSYISSSSSYIDYADSVKGRFTISRDNAKNSLYLQMNSLRAEDTAVYYCARDLTDRQSRDYYYYGMDVWGQGTTVTVSS
VL: B7 VL with S92P, S93I, Q96Y
notes: also called KLK-L1-Ab5

mKLK5 IC50 (protease inhibition) [4]: 9.26 nM
mKLK5 IC90 (protease inhibition) [4]: 81.2 nM
hKLK5 IC50 (protease inhibition) [5]: 2.49 nM
hKLK5 IC90 (protease inhibition) [5]: 10.6 nM
Kd [6]: 0.66 nM
B10: KLK5-L1-Ab4 (antibody, V domains shown)
VH: B9 VH with E30N, H31D, D102S, R103M
VL: B7 VL with S92P, S93I, Q96Y

mKLK7 IC50 (protease inhibition) [1]: 3.34 nM
mKLK7 IC90 (protease inhibition) [1]: 11.4 nM
hKLK7 IC50 (protease inhibition) [2]: 1.4 nM
hKLK7 IC90 (protease inhibition) [2]: 8.25 nM
Kd [3]: 0.217 nM
B13: KLK7-L3-Ab3 (antibody, V domains shown)
VH: QVQLVQSGAEVKKPGSSVKVSCKASGGTFSSHAITWVRQAPGQGLEWMGGIIPIFGFANYAQKFQGRVTITADESTSTAYMELSSLRSEDTAVYYCARGAPNYYGSASSRGIAFDIWGQGTMVTVSS
VL: B7 VL with Q89V, V91A, S92N, S93A, Q96Y, T97S

The next lines start with the binder.

B1: KLK7-L1-Ab3 (antibody, V domains shown)
VH: B2 VH with K63E, G99A, D106H
VL: B2 VL with R91F
mKLK7 IC50 (protease inhibition) [1]: 1.46 nM
mKLK7 IC90 (protease inhibition) [1]: 6.45 nM
hKLK7 IC50 (protease inhibition) [2]: 1.2 nM
hKLK7 IC90 (protease inhibition) [2]: 5.03 nM
Kd [3]: 0.0402 nM

B5: KLK7-L4-Ab2 (antibody, V domains shown)
VH: QLQLQESGPGLVKPSETLSLTCTVSGGSISSSPYNWVWIRQPPGKGLEWIGSILHSGSTYYNPSLKSRVTISVDTSKNQFSLKLSSVTAADTAVYYCARGVPTYWGAASHYYYYMDVWGKGTTVTVSS
VL: DIQMTQSPSTLSASVGDRVTITCRASQSISSWLAWYQQKPGKAPKLLIYKASSLESGVPSRFSGSGSGTEFTLTISSLQPDDFATYYCEQYGSESPLTFGGGTKVEIK
mKLK7 IC50 (protease inhibition) [1]: 2.42 nM
mKLK7 IC90 (protease inhibition) [1]: 9.04 nM
hKLK7 IC50 (protease inhibition) [2]: 1.42 nM
hKLK7 IC90 (protease inhibition) [2]: 6.34 nM
Kd [3]: 0.0266 nM

B6: KLK5-L1-Ab3 (antibody, V domains shown)
VH: B9 VH with D102S, R103M
VL: B7 VL with S92P, S93I, Q96Y
mKLK5 IC50 (protease inhibition) [4]: 4.97 nM
mKLK5 IC90 (protease inhibition) [4]: 40.1 nM
hKLK5 IC50 (protease inhibition) [5]: 1.71 nM
hKLK5 IC90 (protease inhibition) [5]: 15 nM
Kd [6]: 0.32 nM

B8: KLK5-L3-Ab7 (antibody, V domains shown)
VH: B7 VH with K12R, G31N, V33H, I54T, S55F, Y57T, V59N, A99G, Y112D
VL: B7 VL with S92I, Q96Y
mKLK5 IC50 (protease inhibition) [4]: 2.17 nM
mKLK5 IC90 (protease inhibition) [4]: 10.7 nM
Kd [6]: 1.4 nM

B11: KLK5-L1-Ab2 (antibody, V domains shown)
VH: B9 VH with E30G, H31S, S33A, Y57F, D102S, R103M
VL: B7 VL with S92P, S93I, Q96Y
mKLK5 IC50 (protease inhibition) [4]: 4.43 nM
mKLK5 IC90 (protease inhibition) [4]: 34.6 nM
hKLK5 IC50 (protease inhibition) [5]: 2.26 nM
hKLK5 IC90 (protease inhibition) [5]: 13.3 nM
Kd [6]: 0.41 nM

B12: KLK7-L3-Ab2 (antibody, V domains shown)
VH: B13 VH with S30N, S31N, H32Y, T35S, G50A, F57V, S106A, A107Q
VL: B7 VL with Q89V, V91A, S92N, S93A, Q96Y, T97K
mKLK7 IC50 (protease inhibition) [1]: 2.68 nM
mKLK7 IC90 (protease inhibition) [1]: 11.5 nM
hKLK7 IC50 (protease inhibition) [2]: 0.802 nM
hKLK7 IC90 (protease inhibition) [2]: 4.43 nM
Kd [3]: 0.125 nM
